Experimental data as given in patent US20150056222A1 (Regeneron, published 2015).

T1: human prolactin receptor (PRLR) on cells (human, UniProt P16471 25-622)
T1 construct: T47D, T47D#11 and MCF7 carry the endogenous receptor; also called hPRLR; HEK293/hPRLR
T1 sequence: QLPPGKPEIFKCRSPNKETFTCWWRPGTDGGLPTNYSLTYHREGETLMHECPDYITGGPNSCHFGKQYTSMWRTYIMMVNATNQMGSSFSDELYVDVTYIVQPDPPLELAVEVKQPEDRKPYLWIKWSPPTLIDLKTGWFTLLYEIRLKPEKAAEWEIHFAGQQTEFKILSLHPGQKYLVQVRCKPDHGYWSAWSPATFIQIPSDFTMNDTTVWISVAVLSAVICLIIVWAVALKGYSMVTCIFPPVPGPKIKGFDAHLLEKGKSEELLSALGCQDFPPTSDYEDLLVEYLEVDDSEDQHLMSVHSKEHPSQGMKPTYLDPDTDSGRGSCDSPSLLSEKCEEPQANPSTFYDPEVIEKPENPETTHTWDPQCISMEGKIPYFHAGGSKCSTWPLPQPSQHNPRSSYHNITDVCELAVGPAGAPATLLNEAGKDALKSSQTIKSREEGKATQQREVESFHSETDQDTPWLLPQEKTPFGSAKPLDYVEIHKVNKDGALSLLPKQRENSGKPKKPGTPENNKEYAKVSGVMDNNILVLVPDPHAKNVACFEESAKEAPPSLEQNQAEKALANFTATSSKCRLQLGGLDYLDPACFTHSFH

T2: monkey (macaca fascicularis) PRLR on HEK293 cells (macaca fascicularis, UniProt A0A2K5WXK1 25-619)
T2 construct: also called mfPRLR; HEK293/mfPRLR
T2 sequence: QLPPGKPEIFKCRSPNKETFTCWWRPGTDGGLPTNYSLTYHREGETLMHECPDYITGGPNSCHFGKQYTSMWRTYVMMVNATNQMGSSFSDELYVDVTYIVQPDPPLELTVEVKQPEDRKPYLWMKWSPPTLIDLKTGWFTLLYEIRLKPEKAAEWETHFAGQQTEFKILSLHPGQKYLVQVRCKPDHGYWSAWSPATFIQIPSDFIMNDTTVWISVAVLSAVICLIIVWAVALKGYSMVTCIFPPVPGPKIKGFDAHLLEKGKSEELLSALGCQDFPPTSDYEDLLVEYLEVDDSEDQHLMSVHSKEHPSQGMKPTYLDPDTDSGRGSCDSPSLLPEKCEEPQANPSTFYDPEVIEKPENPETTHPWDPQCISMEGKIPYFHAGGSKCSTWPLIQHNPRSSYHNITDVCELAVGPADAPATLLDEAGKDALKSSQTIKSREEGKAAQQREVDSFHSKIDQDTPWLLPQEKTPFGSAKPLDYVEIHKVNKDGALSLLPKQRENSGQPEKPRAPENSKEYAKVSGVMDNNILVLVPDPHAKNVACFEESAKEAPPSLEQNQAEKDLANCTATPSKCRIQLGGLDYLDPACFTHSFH

T3: hPRLR.mmh (soluble monomeric human PRLR) (human)
T3 construct: soluble monomeric construct
T3 chain: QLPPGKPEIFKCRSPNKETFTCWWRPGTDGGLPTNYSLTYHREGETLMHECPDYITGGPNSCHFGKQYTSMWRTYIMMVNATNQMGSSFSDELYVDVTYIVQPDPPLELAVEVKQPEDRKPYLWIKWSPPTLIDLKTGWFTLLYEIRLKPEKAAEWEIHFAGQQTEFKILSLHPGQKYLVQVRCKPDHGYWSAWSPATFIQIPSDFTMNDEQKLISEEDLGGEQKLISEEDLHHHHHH

T4: mfPRLR.mmh (soluble monomeric macaca fascicularis PRLR) (macaca fascicularis)
T4 construct: soluble monomeric construct; also called macaca fascicularis (mf) PRLR.mmh
T4 chain: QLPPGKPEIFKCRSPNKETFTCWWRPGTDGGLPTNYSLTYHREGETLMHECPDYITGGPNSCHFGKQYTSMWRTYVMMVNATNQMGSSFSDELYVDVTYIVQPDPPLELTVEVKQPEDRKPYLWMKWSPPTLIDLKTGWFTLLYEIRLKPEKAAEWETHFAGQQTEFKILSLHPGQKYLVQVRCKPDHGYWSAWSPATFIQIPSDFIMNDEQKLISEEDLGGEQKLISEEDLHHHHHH

T5: hPRLR.mFc (soluble dimeric human PRLR) (human)
T5 construct: dimeric construct
T5 chain: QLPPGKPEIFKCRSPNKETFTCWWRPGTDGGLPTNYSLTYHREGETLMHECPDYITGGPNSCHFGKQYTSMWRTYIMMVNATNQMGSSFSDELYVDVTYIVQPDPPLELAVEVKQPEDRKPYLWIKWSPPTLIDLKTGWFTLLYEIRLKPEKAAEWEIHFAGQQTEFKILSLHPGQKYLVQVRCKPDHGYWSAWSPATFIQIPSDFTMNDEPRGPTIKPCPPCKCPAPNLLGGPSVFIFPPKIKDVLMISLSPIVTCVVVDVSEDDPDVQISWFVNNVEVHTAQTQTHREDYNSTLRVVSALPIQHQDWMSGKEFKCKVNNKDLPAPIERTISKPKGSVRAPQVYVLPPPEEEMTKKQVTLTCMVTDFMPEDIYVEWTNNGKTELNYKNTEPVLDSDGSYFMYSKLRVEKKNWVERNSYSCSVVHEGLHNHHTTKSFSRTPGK

T6: mouse PRLR on HEK293 cells (mouse, UniProt Q08501 20-608)
T6 construct: whole, on cells; also called mPRLR; HEK293/mPRLR
T6 sequence (looked up): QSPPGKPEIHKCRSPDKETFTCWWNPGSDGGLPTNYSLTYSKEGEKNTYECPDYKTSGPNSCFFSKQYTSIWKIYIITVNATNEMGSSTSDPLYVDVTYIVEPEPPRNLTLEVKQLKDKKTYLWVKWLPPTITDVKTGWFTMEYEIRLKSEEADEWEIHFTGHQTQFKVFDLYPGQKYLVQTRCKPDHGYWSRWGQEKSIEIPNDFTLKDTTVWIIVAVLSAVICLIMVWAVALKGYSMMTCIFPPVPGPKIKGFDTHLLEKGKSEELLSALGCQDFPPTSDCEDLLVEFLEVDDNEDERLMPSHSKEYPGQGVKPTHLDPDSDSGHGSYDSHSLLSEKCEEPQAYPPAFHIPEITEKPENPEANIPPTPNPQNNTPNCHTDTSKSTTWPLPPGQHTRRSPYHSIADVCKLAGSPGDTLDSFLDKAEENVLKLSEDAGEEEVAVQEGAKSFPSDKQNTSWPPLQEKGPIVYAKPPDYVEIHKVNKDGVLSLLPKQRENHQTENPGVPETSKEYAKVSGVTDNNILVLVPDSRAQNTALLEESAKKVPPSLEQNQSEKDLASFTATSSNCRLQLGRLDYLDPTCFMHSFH


Key:
[1] = target: T1, human prolactin receptor (PRLR) on cells; test: FACS, T47D cells (native PRLR); further: test concentration or dose not given here
[2] = target: T2, monkey (macaca fascicularis) PRLR on …; test: FACS, HEK293/mfPRLR cells; further: test concentration or dose not given here
[3] = target: T1, human prolactin receptor (PRLR) on cells; test: FACS, HEK293/hPRLR cells; further: test concentration or dose not given here
[4] = target: T3, hPRLR.mmh (soluble monomeric human PRLR); test: SPR, 37C, mAb capture
Procedure: (§1) Measurements were conducted on a T200 Biacore instrument. Kinetic association (kₐ) and dissociation (kd) rate constants were determined by processing and fitting the data to a 1:1 binding model using Scrubber 2.0 curve fitting software. Binding dissociation equilibrium constants (KD) and dissociative half-lives (t_{1/2}) were calculated from the kinetic rate constants as: KD (M)=kd/kₐ; and […].

[5] = target: T4, mfPRLR.mmh (soluble monomeric macaca …); test: SPR, 37C, mAb capture
Procedure: as §1

[6] = target: T5, hPRLR.mFc (soluble dimeric human PRLR); test: SPR, 37C, mAb capture
Procedure: as §1

[7] = target: T1, human prolactin receptor (PRLR) on cells; test: cell-based or functional assay
[8] = target: T6, mouse PRLR on HEK293 cells; test: FACS, HEK293/mPRLR cells; further: test concentration or dose not given here

Binder	FACS Cell Binding (Fold Above Background) [1] [fold above background]	FACS Cell Binding (Fold Above Background) [2] [fold above background]	FACS Cell Binding (Fold Above Background) [3] [fold above background]	T½ [4] [min]	T½ [5] [min]	T½ [6] [min]	% Internalization relative to Control I (alexa488 intensity in intracellular vesicles at 37 C, T47D cells) [7] [%]	FACS Cell Binding (Fold Above Background) [8] [fold above background]
H1H6801P (antibody, human IgG1, V domains shown, human IgG1 Fc (H1H)) VH: QVQLQQSGPGLVKPSQTLSLTCVISGDSVSSNTAWNWVRQSPSRGLEWLGRTYYRSKWYNDYAVSVKSRITINPDTSKNQFSLLMNSVTPEDTAVYYCARVVRGLNYFDYWGQGTLVTVSS VL: DIVMTQSPDSLAVSLGERATINCKSSQSVLYNSNNKNYLAWYQQKPGQPPKLLIYWSSSRESGVPDRFSGSGSGTDFTLTISGLQAEDVAIYYCQQYSTIPYTFGQGTKLEIK	45	88	47	3	1	52	149	–
H1H6800P (antibody, human IgG1, V domains shown, human IgG1 Fc (H1H)) VH: EVQLVESGGGLVQPGRSLRLSCAASGFTFDGYAMHWVRQGPGKGLEWVSGISWYSDTLGYADSVKGRFTISRDNAKNSLYLQMNSLRTEDTAFYYCAKISSSGWAFDYWGQGTLVTVSS VL: EIVLTQSPGTLSLSPGERATLSCRASHSVSSAYLAWYQQKPGQTPRLLIYGTSSRATGIPDRFSGSGSGTDFTLTISRLEPEDFAVYYCQQYGSSPLFTFGPGTKVDIK	41	29	35	10	11	79	198	1
H1H6762P (antibody, human IgG1, V domains shown, human IgG1 Fc (H1H)) VH: QVQLVESGGGVVQPGRSLRLSCAASGFTFSHYGMVWVRQPPGKGLEWVALISFDGTTKYYADSVKGRFTISRDNSKNTLYLQMNSLRAEDTAVYFCVGAIAAAAFDLWGRGTLVTVSS VL: EIVMTQSPATLSVSPGERATLSCRASQSVSSDLAWYQQKPGQAPRLLIYSASARATGIPARFTGSGSGTDFTLTISSLQSEDFAVYYCQQYNNWPMYTFGQGTKLEIK	38	26	36	25	21	112	186	2
H1H6803P (antibody, human IgG1, V domains shown, human IgG1 Fc (H1H)) VH: EVQLVESGGGVVRPGGSLRLSCAASGFKFDDYGMTWVRHVPGKGLEWVSGINWNGGRTGYTDSVKGRFTISRDNAKNSLYLQMNSLRAEDTALYHCAGARRDAFDIWGQGTMVTVSS VL: DIQMTQSPSSLSASIGDRVTITCRASQNIIKYLNWYQQNAGKAPKLLIYTASSLQSGVPSRFSGSGSGTDFTLTISSLQPEDFATYYCQQSSSSPYTFGQGTKLEIK	39	28	39	32	18	186	190	1

Next, values leading:

FACS Cell Binding (Fold Above Background) [1] [fold above background]	FACS Cell Binding (Fold Above Background) [2] [fold above background]	FACS Cell Binding (Fold Above Background) [3] [fold above background]	T½ [4] [min]	T½ [5] [min]	T½ [6] [min]	% Internalization relative to Control I (alexa488 intensity in intracellular vesicles at 37 C, T47D cells) [7] [%]	FACS Cell Binding (Fold Above Background) [8] [fold above background]	Binder
46	29	38	42.3	36.4	163	214	1	H1H6975N (antibody, human IgG1, V domains shown, also called H2M6975N) VH: EVHLVESGGGLVQPGGSLRLSCAASGFTFSSYEMNWVRQTPGKGLEWISHISSRSVIIYYADSVKGRFTISRDNAKNSLFLQMNSLRAEDTAVYFCAGITIFGIPEYWGQGTLVTVSS VL: EIVLTQSPATLSLSPGERATLSCRASQSVSSYFAWYQQKPGQAPRLLIYDASSRATGIPTRFSGSGSGTDFTLTISSLEPEDFAVYYCQQRSSWPITFGQGTRLEIK
9	11	6	0.4	–	5	15.3	2	H1H6959N2 (antibody, human IgG1, V domains shown, also called H2M6959N2) VH: EVQLVESGGGLVQPGRSLRLSCAASGFTFDDYAMHWVRQAPGKGLEWVSGISWHSGIIGYADSVKGRFTISRDNAKNSLYLQMNSLRTEDAALYYCAKIGSYFYFDSWGQGTLVTVSS VL: EIVLTQSPGTLSLSPGERATLSCRASQSVSSNYLAWYQQKPGQAPRLLIYGASSRATGIPDRFSGSGSGTDFTLTISRLEPEDFAVYYCQQFGSSGYTFGQGTNLEIK
